Data from the nanobody polyreactivity screen of Harvey et al. (2022).

Assay: yeast display, Sf9 membrane polyspecificity reagent, FACS + sequencing; frameworks hold sequencing errors
Procedure, shortened: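 Galactose induction of a Saccharomyces cerevisiae BJ5465 synthetic nanobody display library ran 36–48 hours. The cells were then stained for 1 hour at 4 °C with 10% biotinylated, detergent-solubilized Sf9 membrane reagent, pulled down on streptavidin microbeads and FACS-sorted into low and high (top ~1%) gates on expression and reagent-binding fluorescence. Labels for polyreactivity follow the gate of origin.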

Row | Sequence | polyreactivity (PSR sort gate)
1 | QVQLVDSGGGLVQAGGSLRLSCAASGGIFGYGMGWYRQAPGKERELVAAITRSGGSTSYADSVKGRFTISRDNAKYTVYLQMNSVKPEDTAVYFCASRTRYSRYKSGYWGQGTQVTVSS | high polyreactivity
2 | QVQLVDSGGGLVQAGGSLRLSCAASGGIFRQNVMGWYRQAPGKERELVAAISRRGGITYYAEAVKGRFTISRDNAKNTVYLQMNSLKPEDTAVYYCNKKPTWDYSYWGQGTQVTVSS | high polyreactivity
3 | QVQLVDSGGGLVQAGGSLRLSCAASGIIFHFNDLGLYIQAPGKERELVAAIDSTGSTNYSDSVKGRYTISRDNAKITVYLQLNRVKPEDTAVYNCAVLNHRVDAVLTRYYYWGQGTKVTVSS | low polyreactivity
4 | QVQLVDSGGGLVQAGGSLRLSCAASGIIFRAYAMGWSRAAPGKERELVAAISRRGSTTYYADSVKGRFTISRDNAKNTVYLQMNSLKPEDTAVYFCAADYAGPTGFDYWGQGTQVTVSS | high polyreactivity
5 | QVQLVDSGGGLVQAGGSLRLSCAASGIIFSVYAMGWYRQAPGKERELVAAITYSGGSTYYADSVKGRFTISRDNAKNTVYLQMNSLKPEDTAVYYCNAYRYNALPWRYVGYDYWGQGTQVTVSS | low polyreactivity
6 | QVQLVDSGGGLVQAGGSLRLSCAASGIIIKLYAMGWYRQAPGKEREFVATITKTGGRTYYADSVKGRFTISRDNAKNTVYLQMNSLKPEDTAVYYCAARRVNGKMYYWGQGTQVTVSS | high polyreactivity
7 | QVQLVDSGGGLVQAGGSLRLSCAASGINFVWNVMGWYRQAPGKERELVADITSGGRTHYADSVKGRFTISRDNAKNTVYVQMNSLKPDDTAVYYCAARKYWRYQNYDYWGQGTQVTVSS | low polyreactivity
8 | QVQLVDSGGGLVQAGGSLRLSCAASGITFNLYAMGWYRQAPGKERELVAAISNVGSTKYADSVKGRFTISRDNAKNTVYLQMTSLKPEDTAVYYCAADWDRYPDYDYWGQGTQVTVSS | low polyreactivity
9 | QVQLVDSGGGLVQAGGSLRLSCAASGITFVFYAMGWYRQAPGKERELVAAISSSGGSTYYADSVKGRFTISRDNAKNTVYLQMNSLKPEDTAVYYCNAKVFSYQGAVRYDYWGQGTQVTVSS | high polyreactivity
10 | QVQLVDSGGGLVQAGGSLRLSCAASGNTFVTYTMGWYRQAPGKERELVADISSGGSTYYADSVKGRFTISRDNAKNTVYLQMYSLKPEDTAVYYCAVLQAVFRSYYIYHRYYWGQGTKVTVSS | high polyreactivity
11 | QVQLVDSGGGLVQAGGSLRLSCAASGRIFGPYAMVWYRQAPGKERELVASISYSGGSTYYADSVKGRFTISRDNAKNTVYLQMNSLKPEDTAVYYCAKGGYWGGYNYWGQGTQVTVSS | low polyreactivity
12 | QVQLVDSGGGLVQAGGSLRLSCAASGRIFLYNGMGWYRQAPGKERELVAGIITGGNTNYADSVKGRFTISRDNAKNTVYLQMNSLKPEDTAVYYCAAEVIVYGWSPDYDYWGQGTQVTLSS | low polyreactivity
13 | QVQLVDSGGGLVQAGGSLRLSCAASGRIFQQNAMGWYRQAPGKERELVAAISWRGTSTYYADSVKGRFTISRDNAKNTVYLQMNSLKPEDTAVYYCAAQGYAYTLVAKVYRWYEYAYWGQGTQVTVSS | high polyreactivity
14 | QVQLVDSGGGLVQAGGSLRLSCAASGRIFRRYTMGWYRQAPGKERELVAAISSGGGTNYADSVKGRFSISRDNAKNTVYLQMNSLKPEDTAVYYCNARSWLSRGYGYWGQGTQVTVSS | high polyreactivity
15 | QVQLVDSGGGLVQAGGSLRLSCAASGRIFRSYAMGWYRQAPGKERELVAGISSTGGNTYYADSVKGRFTISRDNAKNTVYLQMNSLKPEDTAVYYCAAYWFRGYKYWGQGTQVTVSS | high polyreactivity
16 | QVQLVDSGGGLVQAGGSLRLSCAASGRIIWYKGMGWYTQATGKERELVAAINRGTSTYYADSVKGRFTISRDNAKNSVYLQMNSLKPEDTAVYYCAAGVSRWYYYWGQGTQVTVSS | high polyreactivity
17 | QVQLVDSGGGLVQAGGSLRLSCAASGRTFAYNVMGWYRQAPGKERELVAAISRGGGRTYYADSVKGRFTIARDNAKNTVYLQMNSLKPEDTAVYYCNAYLFFLNRVWSFDYWGQGTQVTVSS | high polyreactivity
18 | QVQLVDSGGGLVQAGGSLRLSCAASGRTFGGNAIGRYIQAPGKETELVAGINISGGSTNYADSVKGRFTISRDNAMNTVYLQMNSLKPEDTPVYYCNADTAVYAWDDDYWGQGTQVTVSS | low polyreactivity
19 | QVQLVDSGGGLVQAGGSLRLSCAASGRTFQRNAMGWYRQAPGTERELVATITTNGGSTYYADSVKGRFTISRDNAKNTVYLQMNSLKPEDTAVYYCAAPFNPRVRTLRSVRMDYWGQGTQVTVSS | low polyreactivity
20 | QVQLVDSGGGLVQAGGSLRLSCAASGRTFRYYDMGWYRPAPGEVREFVAAITWRGGSTYYADSVKGRFTISRDNAKNTVYSQMNSLKPEDTAVYYCATDSLRLYGGKRDLYYWGQGTQVTVSS | low polyreactivity
21 | QVQLVDSGGGLVQAGGSLRLSCAASGRTFSLYAMGWYRQAPGKERELVATISQSGGSTYYADSVKGRFTISRDNAKNTVYLQMNSQKPEDTAVYNCAAGGIYLDYFGQGTQVTVSS | low polyreactivity
22 | QVQLVDSGGGLVQAGGSLRLSCAASGRTFSVNAMGWYRQAPGKERELVAAISSAGSTNYADSVKGRFTISRDNAKNTVYLQMNSLKPEDTAVYYCAAGFSPGNYDAPTLAFDYWGQGTQVTLSS | low polyreactivity

Row | Sequence | polyreactivity (PSR sort gate)
23 | QVQLVDSGGGLVQAGGSLRLSCAASGRTFTVYAMGWYRQAPGKERELVASISGSSGSTDYADSVKGRFTISRDNAKNTVYLQMNSLKPEDTAVYFCAKASSATRYVQLRQDYDYWGQGTQVTVSS | low polyreactivity
24 | QVQLVDSGGGLVQAGGSLRLSCAASGRTFWIYAMGWYRPAPGKERELVAAISRGGSTYADSVKGRFTISRDNAKNTVYLQMNSLKPEDTAVYYCAASTPQYQYYYWGQGTQVTVSS | high polyreactivity
25 | QVQLVDSGGGLVQAGGSLRLSCAASGSIFAGYTMGGYRQAPGKEREFVAAISSSGGSTYYADSVKGRFTISRDNAKNTVYLQMNSLKPEDTAVSYCAVRGRISSVSRYGYWGQGTQVTVSS | high polyreactivity
26 | QVQLVDSGGGLVQAGGSLRLSCAASGSIFGLYAMGWYRQAPGKERELVAAISASGGSTYYADSVKGRFTISRDNAKNTVYLQMNSLKPEDTAVYYCAADLGYPTYDYWGQDTQVTVSS | low polyreactivity
27 | QVQLVDSGGGLVQAGGSLRLSCAASGSIFGSYVMGWYRQAPGKERELVAAISSSGASTYYADSVKGRFTISRDNAKNTVYLQMNSLKPEDTAVYYCAAGYVHLYYFHEYYWGQGTQVTVSS | high polyreactivity
28 | QVQLVDSGGGLVQAGGSLRLSCAASGSIFHVNAMGWYRQAPGKERELVAAIRSDASTNYADSVKGRFTISRDNAKNTVYLQMNILKPEDTAVYYCNTAQLVSDEFDYSGQGTQVTVSS | low polyreactivity
29 | QVQLVDSGGGLVQAGGSLRLSCAASGSIFPDNAMGWYRQAPGKEWEFVAAINWSTGTTYYADSVKGRFTISRDNAKNTVYLQMNSLKPEDTAVYYFNASDQAKYDYWGQGTQVTVSS | low polyreactivity
30 | QVQLVDSGGGLVQAGGSLRLSCAASGSIFSVYAMGWYRQAPGKERELVAAISSRGGSTYYADSVKGRFTISRDNAKNTVYLQMNSLKPEDTAVYYCAASRQSQRGYWGQGTQVTVSS | high polyreactivity
31 | QVQLVDSGGGLVQAGGSLRLSCAASGSIFWDYAMGWYRQAPGIERELVASIPSGGSTYYADSVKGRFTISRDNAKKTVYLQMNRLKPEDTAVYYCAADGHTRHWGQTGRGAMYYWGQGTQVTVSS | low polyreactivity
32 | QVQLVDSGGGLVQAGGSLRLSCAASGSIFYRNAMGWSRQAPGKERELVAAITRGGSTYYADSVKGRFTISRDNAKNTVYLQMNSLKPEDTAVYYCNAYGGFAYSYDYWGQGTQVTVSS | high polyreactivity
33 | QVQLVDSGGGLVQAGGSLRLSCAASGSILESNVMGWYRQAPGKERELVASISSSGDSTYADSVKGRFTISRDNAKNTVYLQMNILKPEYTAVYYCAADRWYWTYALYYWGQGTQVTVSS | low polyreactivity
34 | QVQLVDSGGGLVQAGGSLRLSCAASGSILFEYMGWYRQAPGKERELVAAITIRDGGTYYADSVKGRFTISRDNAKNTVYLQMNSLKPEDTAVYYCNADFSGGWRYDYWGQGTQVTVSS | low polyreactivity
35 | QVQLVDSGGGLVQAGGSLRLSCAASGSTFDPYTMGWYRQAPGTERELVAGMTGGGSTYYADCVKGRFTISRDNAKNTVYLQMNSLKPEDTAVYYCARDYSYYKGPDGHYWGQGTQVTVSS | low polyreactivity
36 | QVQLVDSGGGLVQAGGSLRLSCAASGSTFDVYAMGWYRQAPGKERELVAVINTSGTRTYYADSVKGRFTISRDNAKNTVYLQMNSLKPEDTEVYYCNAGGHLEMNYWGQGTQVTVSS | low polyreactivity
37 | QVQLVDSGGGLVQAGGSLRLSCAASGSTFISYAMRWYRPAPGKERELVAAISSSTGRTYYADSVKGRFTISRDNAKNTVYLQMNSLKPEDTAVYYCNAVHRYERVYWGQGTQVTVSS | high polyreactivity
38 | QVQLVDSGGGLVQAGGSLRLSCAASGSTFQGNTMGWYRQAPGKERELVAAISRSGGITYYADSVKGRFTISRVNAKNTVYLQMNSLKPEDTAVYYCAAKQVFTAGRSVDYWGQGTQVTVSS | high polyreactivity
39 | QVQLVDSGGGLVQAGGSLRLSCAASGSTFVYNTMGWYSHAPGKERELVAAISYRGSTYYADSVKGRFTISRENAKNTVYLQMNSLKPEDTAVYYCNGPRRQYEYDFWGLGTQVTVSS | high polyreactivity
40 | QVQLVDSGGGLVQAGGSLRLSCAASGSTLRRYAMGWYRQAPGKERELVAAISGSGDSTYYADSVKGRFTISRDNAKNTVYLQMNSLKPEDTAVYYCNAVYAFNGYDYWGQGTQVTVSS | low polyreactivity
41 | QVQLVDSGGGLVQAGGSLRLSCAASGYSFYFYAMGWYRQAPGKERELVAAITGGGTTSYADSVKGRFTISRDNAKNTVYLQMNSLKPEDTAVYYCNVLFADKSDYWGQGTLVTVSS | low polyreactivity
42 | QVQLVDSGGGLVQAGGSLRLSCAASGYTFDRYAMGWYRQAPGKERELVAAISVRGGRTHYADSVKGRFTISRDNAKNTVYLQMNSLKPEDTAVYYCNKDSKGGYSVPHDYWGQGTQVTVSS | low polyreactivity
43 | QVQLVDSGGGLVQAGGSLRLSCAASGYTLSVNAMGWYRQAPGKERELVATIDFGGGSTYYADSVKGRFTISRDNAKNTVYLQMNSLKPEDTAVYYCNAHDFGFYRFSLPGYDYWGQGTQVTVSS | low polyreactivity
